Data on 2 molecules can be found in patent US20210363255A1 (TRUEBINDING, published 2021).

Test [1] addresses Purified human PD1 extracellular domain produced in E. coli fused to Fc (Ray Biotech) (human) (UniProt Q15116). The test is described as follows: blocking ELISA; E. coli hPD1 ECD-Fc coated, antibody at 20 ug/ml, competitor ligand biotinylated deglycosylated mPD-1 Fc. In general terms: In an ELISA, binding on a coated surface is turned into a signal by an enzyme label.
Test [2] deals with T1, hPD-1 peptide No. 12 (TDKLAAFPED) (human).
T1 construct: also called PD1 peptide 12; peptide 12
T1 peptide: TDKLAAFPED
The test is described as follows: ELISA on hPD-1 peptide array.

Sequence of Purified human PD1 extracellular domain produced in E. coli fused to Fc (Ray Biotech) (human) (Q15116 25-170): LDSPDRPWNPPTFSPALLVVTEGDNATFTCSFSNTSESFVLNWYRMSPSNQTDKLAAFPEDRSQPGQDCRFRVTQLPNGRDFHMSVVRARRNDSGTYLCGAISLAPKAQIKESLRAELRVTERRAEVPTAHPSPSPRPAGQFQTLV

With mab12 (LS-C131333, LS Bio) (antibody), in test [1], the binding remaining, % of unblocked controls (% of unblocked controls) is 86.

B1: IMT200 (antibody, V domains shown)
VH: QVQLQQSGPELVKPGASVKISCKASGFAFSGSWMNWMKQRPGKGLEWIGRIYPGDGDTNYNGKSKGKATLTADTSSSTAYMQLSSLTSEDSAVYFCTRSTTILADYWGQGTTLTVSS
VL: DIQMTQTTSSLSASLGDRVTISCRASQDIANYLNWYQQKPDGTVKLLIYYTSRKYSGVPSRFSGSGSGTDYSLTISNLDQEDIATYFCQQGKTLPWTFGGGTKLEIK
notes: Monoclonal raised against non-glycosylated His-tagged hPD-1 and detected with anti-mouse IgG-HRP; also called monoclonal antibody IMT200; anti-PD-1 mAb IMT200
Regarding B1, the binding result in test [2] is given as “binds”.
